Test results as given in patent publication US20040120923A1 (ARES TRADING S A, published 2004).

Molecular target: T1, IL-18Rβ extracellular domain (his6-tagged, produced in Cos cells) (UniProt O95256 20-356, limits assumed)
T1 construct: extracellular domain; also called IL-18Rβ-ECD; signalling chain of IL-18R
T1 sequence (looked up): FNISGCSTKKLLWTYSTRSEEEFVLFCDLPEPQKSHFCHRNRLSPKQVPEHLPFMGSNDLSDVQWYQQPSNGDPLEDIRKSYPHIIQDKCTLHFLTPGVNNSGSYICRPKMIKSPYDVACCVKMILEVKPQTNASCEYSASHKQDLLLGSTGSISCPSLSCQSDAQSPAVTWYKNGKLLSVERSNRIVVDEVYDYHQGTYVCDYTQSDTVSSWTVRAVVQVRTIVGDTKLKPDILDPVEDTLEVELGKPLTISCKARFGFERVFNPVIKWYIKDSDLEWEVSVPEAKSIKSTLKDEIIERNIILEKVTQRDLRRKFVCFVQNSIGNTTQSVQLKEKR
Assay: chemical cross-linking of the two extracellular domains without ligand, SDS-PAGE, Western blot with anti-his6 mAb against his6-tagged IL-18Rβ

- binding result: no binding
B1: IL-18Rα extracellular domain (produced in Cos cells) (receptor, UniProt Q13478 22-329, looked up)
chain: CTSRPHITVVEGEPFYLKHCSCSLAHEIETTTKSWYKSSGSQEHVELNPRSSSRIALHDCVLEFWPVELNDTGSYFFQMKNYTQKWKLNVIRRNKHSCFTERQVTSKIVEVKKFFQITCENSYYQTLVNSTSLYKNCKKLLLENNKNPTIKKNAEFEDQGYYSCVHFLHHNGKLFNITKTFNITIVEDRSNIVPVLLGPKLNHVAVELGKNVRLNCSALLNEEDVIYWMFGEENGSDPNIHEEKEMRIMTPEGKWHASKVLRIENIGESNLNVLYNCTVASTGGTDTKSFILVRKADMADIPGHVFTR
notes: extracellular domain; It is glycosylated (Cos cell product); also called IL-18Rα-ECD
